# Experimental data taken from the DeepSol protein solubility set.
# Test: soluble on expression in E. coli; label from the status in PepcDB or PDB records
row,Sequence,soluble on expression in E. coli
1,MGSDKIHHHHHHMTAQNGQDVWHEDILDDSAIAVLSYPIGEMQRDQLHSHGYHQIAMCEQPGATLLLGSQVVSIPWNGALLVPSGTDHALTSETRCVIRCIYFKAALPSTSIGSLFLNRLTKELIKEISTSYVTERSRRLMEACLYDQIGQLLWSSGSGMMPPSRSLRVICKHIFDTPEDDTPVATLAKDAGLSERSLRRLARDELGCTISQIRTRCRIYKATQLLQAGVPVKLIAADVGYQSNSAFFSAFREIMGMSPARFQAECAASRSLSHLRLK,not soluble
2,MTEASIKLGTTSDKLEYEVIDKGSNGFLGIGSRDAVIKVKKAEASVEDEIREFLDSVFKAMKLEVTIDIKVDEDNRNVDVELNGPEMGVLIGKRGQTLDSLQYLTNLAINKQSENYYRVKIDTEDYRKRRRETLENLAKNISFKVKRTKRPVSLEPMNPFERRVIHSALQNDRFVETHSEGDEPYRHVVVTLKK,not soluble
3,MEVVLHEGDAKDWVYKGEGAANLILSYTGSSPSMLGKVLRVKKILKDKGQPAPNCIVFSSHEEHLWGKIPGLLESVKNDCLPQAYATIVMSQHLGANHVDGGVRVRVSKNFFELAGKNVLDNRPAWRVNASAIDAGADSALLISDHTLFSGNPRGSSCIAVEIKAKCGFLPSSEYISKENSIKKQVTRYKMHQHLKFHLGEISKTSEYDPLDLFSGSKERIHMAIKSFFSTPQNNFRIFVDGSLVFGGMGGGADSVHPNETEKCLEDLSKVTGLQLSDFIELLSEAIFKSGVLGKLLATQKLDDHDIEGAIHLYYNIISQPCLVCKSITDTELLRKYSTLHSLPLDKSEKIVRDFLISATAKDCSLMISFRPRQSGTTDSEYDSVFLDSVNQSYDYKAYFIDLDVKPLDKMVLLPSRENV,soluble
4,ARQENPCGPCSERRKHLFVQDPQTCKCSCKNTDSRCKARQLELNERTCRCDKPRR,soluble
5,MSLQNAYWLTNVRLETGYKFNNEVVTGTETALHHLLIQDGKIEKIVLADVPLQTEYETKDAKELLVLPSFVENHFHLDKTKLGGPWEACTPVKNIIERLELEQQELPILAQTTGERAELLLRNILNAGSTHIRTHVNIDPYIGLKNLESVRQTLENMKDAFTYEIVAFPQHGLLRTEAHSLMREAMKMGATLVGGVDPATVDNNIEKSLFDMMEIAVEANADVDLHLHDAGHLGIYTIKKLAQYTEEASWDGRVAVSHAFSLGDVSKEEGADMADLLAERGMSIITTVPINRNMPPVPLLTEKGVPISLGCDSMFDSWGPFGNADIFERVGRLAEKYRWMDEKSLASSLAYITGGKTPLDQEGNQVWPKVGDKADFVFLQATCSAEAIARRAKRPAVMRDGKIVAGSLQHVQGVLIEGHHHHHH,soluble
6,MLFNFREKLNSRKFLVTAEVSPPKGTRFSASLEDASQLKGIADALNVTDNQCSIMHMSSLAFSKLLLDEGHEPIMQLTCRDRNRIGLQSDLLGAYALGIRNICLMTGDYPTCGDHPGSKPVYDVDSVQLIELVRKLDTGVDFAGNKLDGGTSFCAGAVSGIDPEKTMQLIKLQKKVKCGADFIQTQAVYDIGMFEEFMDAVNYLEVPVIAGLIPLKSLGMAEFMNKNISGIHVPEEIMLRMKDASSPMEEGLLIASETIKELTKLSRGIHVMPIGSHRNTARLLSLAGISQ,not soluble
7,MGSDKIHHHHHHLSVRATISDSKSDFHKEFPYVIPAIYRKLADELLVELHLLSHQKNFKKDSIFSTGLKEVFSKFTSGYKPSEHATKLFDAICNCNGFNPTEINNSSEQLVSNAKSFTKEDLNSFLSKTNNDNKGYDYYSRINAIGIYKLVSEMPLFKEVKEEDLNKEINDISKSLGYQYSRVEKDISMYKSNIEKMKQALEIIALNLKTK,not soluble
8,SQIFASDGKTQLARIVPPDGNRTEVPIDKIPEVTRNAVLAAEDREFYTNSGFSFTGFGRAILGQLTGDASAGGGSTITQQYVKNMVVGNDYSYMRKAKELVYSVKMANEWSKDEVLGAYLNTIYFGRNAYGIDAAAHAYFGVPASELNVGQSAMLAATIQRPSQLDPWSNR,not soluble
9,MGSDKIHHHHHHMTTLKARLRQGQAITMIGNSLPDTYAAEMVASAGFDAVMIDLQHSAIGLHEVNDLARAVRAQGCAPVVRVAANDPAAITKVLDGGVDAVVAPMINSAEACRQFISACYYAPLGDRSFGPYLGQVIQRQSIQDYYAQTRDRLLPIAMIENEEGVRQAEQIMRTEGLGAIYVGASDLSIAMGMDCVPDYRNARLLDCIKGLIDLGERCGIPVGAFAPTLEDSLMLQSLGSRILWVGSDQGFIKAGCAARAQQYHAESSPRR,not soluble
10,MSLAAVFPLADFRRAGFDRAGESDAWKDSIIKGDCVAALDALPSQSVDAIFADPPYNLQLGGTLHRPDQSLVDAVDDEWDQFASFDAYDAFTRAWLLACRRVLKPNGTIWVIGSYHNIFRVGAMLQNLDFWILNDIVWRKTNPMPNFKGRRFQNAHETMIWASRDPKAKSYTFNYDALKASNDDVQMRSDWLFPICSGHERLKGDDGKKVHPTQKPEALLARIIMASTKPGDIVLDPFFGSGTTGAVAKRLGRHFVGIEREQDYIDAASARITAVEPLGKAELTVMTGKKAEPRVAFNTLVESGLVRPGQVLTDARRRYSAIIRADGTLASGGTAGSIHRLGAKVQGLDACNGWTFWHFEDGDALKPIDDLRTIIRSEMAKAEGHHHHHH,soluble
11,SLPSAQAPSLLNPTDDFAALGNIAWLWMNSPMHRDWPVHLLARNTLAPIQLGQYILLRCNDVPVAYCSWALMDADTELSYVMAPSSLGGNAWNCGDRLWIIDWIAPFSRDDNRALRRALAERHPDSVGRSLRVRRGGDTARVKEYRGRALDAAAARAQLDRYHAELIAGLRASNGGYAPR,soluble
12,MSLATTREEALHIHRENQGKLESKSKVPVRNARDLSLAYSPGVAEPCKEIFEDVETVYEYTMKGNMVAVVSNGTAVLGLGNIGPEASLPVMEGKAVLFKSFAGVDAFPICLRTTDVDQIVETVKLLEPTFGGVNLEDIAAPSCFEIEERLKKETNIPVFHDDQHGTAIVTLAGLINALKLTGKRMSEIKVVANGAGAAGIAIIKLMQRMGVRDIIMCDSKGAIYDGRPYGMNDMKAEVAKWTNRDKIDGGLGDVLKGADVFIGVSVAGALTKEMIENMNDDPIIFAMANPVPEIMPEEAKAAGAKVIGTGRSDFPNQVNNVLAFPGIFRGALDARATHINEEMKVAAVHAIADLVAEEDLDPDYVIPAPFDPRVAPAVAAAVAKTAMETGVARRKVDPAEVEAKTKKLAIIEEGHHHHHH,soluble
13,MEVLKVASNSNPNKVAGALAGVIREKGKAELQAIGAGAVNQAVKAIAIARGYLAPSGINLVCVPAFAEVQINGETRTAIKFIVFPKD,not soluble
14,MSDMYDKINELYDRRREIELGGGDEKIEQQHAKGKLTARERIDLLLDEGTFVELNPFIEHRCTDFGLGEKKGPGDGVVTGYGKINGRTVFVFSQDFTVFGGALGEMHAKKITNIMDLAAKTGAPVIGLNDSGGARIQEGVLSLDGYGHIFYRNAIYSGVIPQISVIMGPCAGGAVYSPAITDFVFMVEKTSQMFITGPKVIEAVTGEKISAEDLGGARVHNTISGNAHFAAANEEEALAEVRRLLGYLPSNNNEKPPFGPIPDGDDYRPDLADVVPIDAVRPYDVRHVIAQVVDDGSFMEVQKDFAKNIVIGFARIKGEVVGLVCNQPKFMAGGLDIDSSDKAARFIRFCDSFNIPIITFEDVTGFFPGVKQEHGGIIRHGAKILYAYSEATVPKITVILRKAYGGAYVALNSKSIGADVVYAWPNAEVAVMGPQGAANIIFAGEIEKSPNPEETRAQKIAEYREKFANPYVAAKYGMIDDVIDPRDTRIKLIQALEMLRNKHEERPKKKHGNIPL,not soluble
15,MAHHHHHHMTRPRLTSAPRGSALKEAISAHQALRNAVAQEQSALDDELKKNEQILAEHEQLMRDWSCDKEGVLATIQKMKEKIAENESKTTEARAEVKQNEEIVKRLHARNEEYEPRLEASAIEIAERLKKREEEEKEMREQLLTFQIACQEREQQYRDQIHKLEETNAQEAVDHQQKVQQLRSKIAEVEATMEEERRAWVVETEMRKQQRLIERHKFFTEEAEEARKGKEACAAIMKEASALRMDSNLLTSLDDLLCC,not soluble
16,MKVAEIIVVEGKDDTRRIQEVVAADTIETIGSAINDEILTQIEHAQETRGVIIFTDPDYSGEKIRKTIMEVVPDAKHAFLSRKVAVPKKNGGSLGVEHASDEAIIEALKKVVTPVQADEDYQEIPRQTLVEYGLIAGANAKKYRELLGDDLRIGYTNSKQLVKRLSMFRITEAELKESMTRILKELANEE,not soluble
17,MGSDKIHHHHHHMTQYIYLHGFASSPQSAKAQDIRQRFAQIHTQLTIPDLNAGEFSQLTITRQIQQIAATFPDDSVPITLIGSSLGGLTAAHLGQRYLQVQRLVLLAPAFGFLSHWLPKMGEGAVQSWQQNGYYPVYHYGEGTSLPLSYNFVTDAAQYQEDHIQRPIPTLILHGKHDEVIPITASRDFAHSRPWVELIELDSNHALGNVMEEIWQAISLFCQLPESGKI,not soluble
18,SRTPAKGNGADPIRLPVRSGIRESRLEFHYHYSNFLVYGEAGSGKTKSIGKWLLSEYMRLGFAGFIYDFKDTDYTRTAYNLIKRHRYPHKFYYVSFDRPERSYRFNPLKVVRDRTELIQLMEDVLLALLPKKEQQNEWVAGGLGILRGVAFRFWDEFPEHCTLPHILAFIMTASARQLSLFLQQNLVSEMLAGAYLKAEGSEKTQASYLSTLCNNLATISQNEEIAYVLSGDDFDFNLIDPETPKLFAVSNNFSKNSVYAPVISMLMTISARQFSMQNRVPFVYFLDEMTTVNIKNFETLPSVLREYKAAFILLTQSGAKLENLYGKLDRSSVEANFGNMFLGRTKDVEALKYYPLFFGKEEKERRSRSSGKSGASSSSSVTVSSQKEDIYQGKDFADLEPGEFIGSATRANVSYFKVKLEMYDDRNEEPLPDVRVLEPGELGRNFARILEEVRELFPCE,not soluble
19,MGSDKIHHHHHHMCRWAAYIGPPVHLDEVVCKPEHSLVAQSVHAFECKTQTNADGFGIAWYDSREEPGLYRDTHPAWSDPNLKSITHQVRSGLFLAHVRASTGTATSRNNCHPFTHGCWSFMHNGQVGGFENFRRRADMIIPDELYSARKGATDSEALFLIAIAEGLYEDPKGAMQRAVGRLEALSREFGHTPHMRIGAAFSCGGALYAVRYASDHLAPTVYSSKSADGTGRLVVSEPLHKGECWEAVPAGSFCRFTADDTEIEDFVPQF,not soluble
20,MAQTLAQTKQISQSHTFDVSQSHHKTPDDTNSHSVIYSTQNLDLWYGENHALQNINLDIYENQITAIIGPSGCGKSTYIKTLNRMVELVPSVKTAGKILYRDQDIFDQKYSKEQLRTNVGMVFQQPNPFPKSIYDNITYGPKIHGIKNKKVLDEIVEKSLRGAAIWDELKDRLHTNAYSLSGGQQQRVCIARCLAIEPEVILMDEPTSALDPISTLRVEELVQELKEKYTIIMVTHNMQQAARVSDKTAFFLNGYVNEYDDTDKIFSNPSNKKTEDYISGRFG,not soluble
21,MGSDKIHHHHHHMPRDLPPLNALRAFTAAAKRLSFTQAAEDLGVTQAAVSHQIRGLEDWLGVALFRRRNKQVVMTEAGQVYALAIGQALDEIAEATAALVRNDPRAGMLTISTMPSFAIKWLVQRLGGFINANPDIEVRLHTTRELVNFATEGIDVAIRMTREVGDDLHADLLLEEELFPVCSPALMRGIRPLRQPSDLSQHLLLQDVGISWVSWLDPAGALDVRPARGPGYLDSALAIQACIESQGVMLGRTVMVEDDLKAGRLVEPFTLRVPSPMKYWLVCPPGHLARPGVRAFREWILAEASKWTKARSSAHGVED,not soluble
22,MIQERKNLVTFGDQLVEAGRRLGRLCVGIDPHPSLLKQWGCDDGIAGLQRFTEICVEAFSGNVALVKPQVAFYEAWGAAGYQILESAISELRQAGTLVLSDAKRGDIGSTMAGYAQAWLAEESSLSSDAVTVSPFLGYGSLSPVLEVAASTNKGVFVLAATSNPEARSLQDRIGEDGLSISQLMVDSVALSNREHKENNHYGNVGVVIGATLAHPPQLERLNGPILLPGVGAQGATPADVARLTQGVQELAFANVSRGILKAGPSASALSTAISKFVEEFTN,not soluble
